# Source: patent US20160279196A1 (published 2016)
# T1: SSX-2 peptide on HLA-A*02:01 (human)
# T1 peptide: KASEKIFYV
# T2: SSX-4 peptide on HLA-A*02:01 (human)
# T2 peptide: KSSEKIVYV
# T3: SSX-1; SSX-8 peptide on HLA-A*02:01 (human)
# T3 peptide: KYSEKISYV
# T4: SSX-10 peptide on HLA-A*02:01 (human)
# T4 peptide: KASEKILYV
# T5: SSX-9 peptide on HLA-A*02:01 (human)
# T5 peptide: KSSEKIIYV
# T6: SSX-3 peptide on HLA-A*02:01 (human)
# T6 peptide: KVSEKIVYV
# T7: SSX-6 peptide on HLA-A*02:01 (human)
# T7 peptide: KFSEKISCV
# T8: SSX-7 peptide on HLA-A*02:01 (human)
# T8 peptide: KSLEKISYV
# T9: SSX-5 peptide on HLA-A*02:01 (human)
# T9 peptide: KASEKIIYV
# B1: SSX-2 TCR (TCR, V domains shown)
# Valpha: AQKITQTQPGMFVQEKEAVTLDCTYDTSDPSYGLFWYKQPSSGEMIFLIYQGSYDQQNATEGRYSLNFQKARKSANLVISASQLGDSAMYFCAMTSGFGNEKLTFGTGTRLTIIP
# Vbeta: DAMVIQNPRYQVTQFGKPVTLSCSQTLNHNVMYWYQQKSSQAPKLLFHYYDKDFNNEADTPDNFQSRRPNTSFCFLDIRSPGLGDAAMYLCATSRGQGGQPQHFGDGTRLSIL
# Assays:
# [1] = target: T1, SSX-2 peptide on HLA-A*02:01; assay: multimer staining
# [2] = target: T2, SSX-4 peptide on HLA-A*02:01; assay: cytokine release
# [3] = target: T3, SSX-1; SSX-8 peptide on HLA-A*02:01; assay: cytokine release
# [4] = target: T4, SSX-10 peptide on HLA-A*02:01; assay: cytokine release
# [5] = target: T5, SSX-9 peptide on HLA-A*02:01; assay: cytokine release
# [6] = target: T6, SSX-3 peptide on HLA-A*02:01; assay: cytokine release
# [7] = target: T7, SSX-6 peptide on HLA-A*02:01; assay: cytokine release
# [8] = target: T8, SSX-7 peptide on HLA-A*02:01; assay: cytokine release
# [9] = target: T9, SSX-5 peptide on HLA-A*02:01; assay: cytokine release
binder,measurement,setting,value
B1,binding result,[1],recognises
same,binding result,[2],recognises
same,binding result,[3],no recognition
same,binding result,[4],recognises
same,binding result,[5],recognises
same,binding result,[6],recognises
same,binding result,[7],no recognition
same,binding result,[8],no recognition
same,binding result,[9],recognises
